Test results published in US20200283521A1 (GRANULAR THERAPEUTICS, published 2020).

How the values were obtained:
Test in all cases: direct ELISA on coated protein, IgG1
hLTBR-Fc = biological target: T1, hLTBR-Fc (human, UniProt P36941)
T1 construct: Fc fusion; member of the panel m9

hDR6-Fc = biological target: T2, hDR6-Fc (human, UniProt O75509)
T2 construct: Fc fusion; member of the panel m9
T2 sequence (looked up): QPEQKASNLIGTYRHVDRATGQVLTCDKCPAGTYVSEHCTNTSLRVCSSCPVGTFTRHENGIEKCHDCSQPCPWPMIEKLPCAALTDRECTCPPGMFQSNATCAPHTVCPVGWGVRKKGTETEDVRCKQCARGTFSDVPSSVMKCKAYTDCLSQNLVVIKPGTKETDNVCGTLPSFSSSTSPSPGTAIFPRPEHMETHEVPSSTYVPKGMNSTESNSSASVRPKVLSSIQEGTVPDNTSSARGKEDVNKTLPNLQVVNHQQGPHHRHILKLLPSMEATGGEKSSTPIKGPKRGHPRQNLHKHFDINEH

hVCAM-1 = biological target: T3, hVCAM-1 (human, UniProt P19320)
T3 construct: purified recombinant protein; member of the panel m9
T3 sequence (looked up): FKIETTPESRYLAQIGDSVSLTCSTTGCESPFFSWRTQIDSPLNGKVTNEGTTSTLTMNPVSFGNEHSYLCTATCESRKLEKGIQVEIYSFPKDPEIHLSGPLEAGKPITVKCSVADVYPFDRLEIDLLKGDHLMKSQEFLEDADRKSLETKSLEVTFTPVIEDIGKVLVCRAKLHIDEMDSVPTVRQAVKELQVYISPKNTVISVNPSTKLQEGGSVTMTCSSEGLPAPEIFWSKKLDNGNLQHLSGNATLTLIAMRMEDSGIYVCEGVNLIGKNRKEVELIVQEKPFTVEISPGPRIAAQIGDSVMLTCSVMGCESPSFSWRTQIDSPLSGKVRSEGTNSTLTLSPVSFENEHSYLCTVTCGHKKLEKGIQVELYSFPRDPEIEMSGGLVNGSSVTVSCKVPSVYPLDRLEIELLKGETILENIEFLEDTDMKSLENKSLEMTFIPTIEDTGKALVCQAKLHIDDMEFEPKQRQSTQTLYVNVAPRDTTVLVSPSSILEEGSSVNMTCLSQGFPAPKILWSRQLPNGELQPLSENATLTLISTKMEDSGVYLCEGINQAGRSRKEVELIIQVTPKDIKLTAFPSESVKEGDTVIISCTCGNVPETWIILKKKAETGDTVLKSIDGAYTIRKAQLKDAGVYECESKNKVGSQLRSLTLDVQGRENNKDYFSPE

hEpCAM-Fc = biological target: T4, hEpCAM-Fc (human, UniProt P16422)
T4 construct: Fc fusion; member of the panel m9
T4 sequence (looked up): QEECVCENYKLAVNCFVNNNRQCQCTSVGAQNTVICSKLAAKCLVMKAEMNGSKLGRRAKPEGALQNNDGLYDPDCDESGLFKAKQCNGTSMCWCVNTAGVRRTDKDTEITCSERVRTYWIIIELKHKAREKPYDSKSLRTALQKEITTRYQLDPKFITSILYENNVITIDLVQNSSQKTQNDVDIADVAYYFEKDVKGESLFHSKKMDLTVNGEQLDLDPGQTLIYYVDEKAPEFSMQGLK

hDR3-Fc = biological target: T5, hDR3-Fc (human, UniProt Q93038)
T5 construct: Fc fusion; member of the panel m9
T5 sequence (looked up): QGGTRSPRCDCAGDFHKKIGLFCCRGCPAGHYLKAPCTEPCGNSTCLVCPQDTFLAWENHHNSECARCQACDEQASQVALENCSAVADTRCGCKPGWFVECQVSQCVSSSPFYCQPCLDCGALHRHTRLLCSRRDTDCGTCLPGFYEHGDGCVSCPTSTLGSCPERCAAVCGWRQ

hCMET-Fc = biological target: T6, hCMET-Fc (The natural ectodomain is cleaved by furin after residue 307 into disulfide-linked alpha and beta chains. It is given here as one continuous stretch.)
T6 construct: member of the panel m9
T6 chain: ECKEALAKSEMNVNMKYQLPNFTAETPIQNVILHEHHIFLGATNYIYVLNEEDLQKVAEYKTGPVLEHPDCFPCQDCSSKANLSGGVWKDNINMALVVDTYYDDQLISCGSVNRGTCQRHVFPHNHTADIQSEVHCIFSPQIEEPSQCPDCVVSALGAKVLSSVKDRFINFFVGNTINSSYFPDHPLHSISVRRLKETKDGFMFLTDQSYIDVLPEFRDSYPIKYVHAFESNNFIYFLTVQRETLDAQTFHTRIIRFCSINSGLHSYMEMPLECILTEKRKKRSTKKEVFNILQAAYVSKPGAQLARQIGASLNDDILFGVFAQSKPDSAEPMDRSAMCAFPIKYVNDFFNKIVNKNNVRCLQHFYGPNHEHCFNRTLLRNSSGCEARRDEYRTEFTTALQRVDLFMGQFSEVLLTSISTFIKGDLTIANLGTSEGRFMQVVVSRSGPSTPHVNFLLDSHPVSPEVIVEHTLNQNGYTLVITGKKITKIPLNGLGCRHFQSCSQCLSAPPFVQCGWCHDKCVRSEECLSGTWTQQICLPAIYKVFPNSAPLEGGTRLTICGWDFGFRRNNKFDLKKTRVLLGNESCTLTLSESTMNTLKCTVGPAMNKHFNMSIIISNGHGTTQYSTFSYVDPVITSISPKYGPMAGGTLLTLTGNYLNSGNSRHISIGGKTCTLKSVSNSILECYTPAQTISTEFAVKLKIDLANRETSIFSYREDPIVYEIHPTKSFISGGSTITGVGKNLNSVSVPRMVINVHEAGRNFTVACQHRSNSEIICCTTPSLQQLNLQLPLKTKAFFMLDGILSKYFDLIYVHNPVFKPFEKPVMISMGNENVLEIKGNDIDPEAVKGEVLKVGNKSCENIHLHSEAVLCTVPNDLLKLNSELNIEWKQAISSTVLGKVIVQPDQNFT

h4-1BB-Fc = biological target: T7, h4-1BB-Fc
T7 construct: member of the panel m9
T7 sequence (chain, as listed by the source limits assumed): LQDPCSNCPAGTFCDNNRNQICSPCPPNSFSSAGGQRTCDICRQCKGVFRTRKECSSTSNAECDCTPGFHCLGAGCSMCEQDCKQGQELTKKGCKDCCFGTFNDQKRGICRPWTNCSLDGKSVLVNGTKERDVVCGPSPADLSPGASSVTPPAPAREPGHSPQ

hVCAM-Fc = biological target: T8, hVCAM-Fc
T8 construct: member of the panel m9
T8 chain: T3 sequence (looked up)

hCD4 = biological target: T9, hCD4 (human, UniProt P01730)
T9 construct: purified recombinant protein; member of the panel m9

hICAM-1-Fc = biological target: T10, hICAM-1-Fc (human, UniProt P05362)
T10 construct: Fc fusion; member of the panel m9
T10 sequence (P05362 28-480 limits assumed): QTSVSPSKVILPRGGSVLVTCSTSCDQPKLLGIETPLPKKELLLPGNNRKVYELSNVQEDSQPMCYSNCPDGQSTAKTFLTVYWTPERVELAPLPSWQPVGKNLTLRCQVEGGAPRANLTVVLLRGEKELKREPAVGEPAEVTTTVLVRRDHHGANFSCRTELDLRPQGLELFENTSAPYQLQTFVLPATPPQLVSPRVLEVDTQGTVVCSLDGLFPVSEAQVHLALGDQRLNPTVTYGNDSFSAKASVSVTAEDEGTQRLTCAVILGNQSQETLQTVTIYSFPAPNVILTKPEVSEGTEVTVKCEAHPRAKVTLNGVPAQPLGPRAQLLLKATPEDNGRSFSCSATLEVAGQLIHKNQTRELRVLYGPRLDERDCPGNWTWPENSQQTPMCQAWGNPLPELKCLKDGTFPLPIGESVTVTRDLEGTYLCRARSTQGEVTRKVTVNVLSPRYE

Measured: binding result

T1 sequence (P36941 28-227 limits assumed): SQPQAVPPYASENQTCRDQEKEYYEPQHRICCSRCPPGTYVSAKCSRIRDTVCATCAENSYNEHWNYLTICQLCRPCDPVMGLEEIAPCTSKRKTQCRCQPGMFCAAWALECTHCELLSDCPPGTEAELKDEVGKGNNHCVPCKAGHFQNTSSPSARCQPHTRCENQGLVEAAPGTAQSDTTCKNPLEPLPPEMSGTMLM

B1: MH5.22 (antibody, IgG1, V domains shown)
VH: QVQLVQSGAEVKKPGASVKVSCKASGYTFTDFYMNWVRQAPGQGLEWMGRIYPASGNTYYAQKFQGRVTMTRDTSTSTVYMELSSLRSEDTAVYYCARGVWYYDYWGQGTLVTVSS
VL: DIQMTQSPSSLSASVGDRVTITCRASQGIRTNLAWFQQKPGKAPKSLIYAASSLQSGVPSRFSGSGSGTDFTLTISSLQPEDFATYYCQQYANYPRTFGGGTKVEIK
notes: IgG1; also called C-KIT-MH5.22
no binding (tested: 1 µg/ml): hLTBR-Fc | hDR6-Fc | hVCAM-1 | hEpCAM-Fc | hDR3-Fc | hCMET-Fc | h4-1BB-Fc | hVCAM-Fc | hCD4 | hICAM-1-Fc
